Measured values as given in patent publication US20220095596A1, “USE OF ECM1 GENE-KNOCKOUT MOUSE IN SCREENING OF ANTI-HEPATIC FIBROSIS DRUG” (CENTER FOR EXCELLENCE IN MOLECULAR CELL SCIENCE, CHINESE …, priority 2018, published 2022).

Columns and labels:
[1] = system: primary stellate cells (HSC); experiment: Self-activation of primary stellate cells (HSC) cultured in vitro, related gene expression by RT-PCR; format: cell-based; settings: ECM1 protein 50 µg/ml, cRGD 10 µg/ml; WT mouse HSC cultured in vitro 2 weeks, vs unrelated IgG (NC)
Protocol: B: Primary stellate cells (HSC) from the liver of wild-type mouse (WT) are isolated and cultured in vitro for 2 weeks. Recombinant mouse ECM1 protein ([…]), cRGD ([…]) or unrelated IgG protein ([…]) are added to the culture medium as negative control (NC). Changing fresh culture medium every 3 days. Two weeks later, It is lysed with TRIZO and mRNA is extracted, and cDNA is obtained by reverse transcription. Finally, the expression of related genes is detected by RT-PCR.
The primary stellate cells (HSC) of the mouse liver will self-activate during in vitro culture. This is because of the change in culture conditions, the Latent TGF-β1 secreted by the cells will be activated by integrin αv on the cell surface to activate stellate cells (HSC). In this process, the addition of integrin αv inhibitor (cRGD) or TGF-β1 neutralizing antibody will inhibit the self-activation of stellate cells (HSC).
Therefore, primary stellate cells (HSC) from the liver of wild-type mice (WT) were isolated and cultured in vitro for 2 weeks. Recombinant mouse ECM1 protein ([…]), cRGD ([…]) or unrelated IgG protein ([…]) were added to the culture medium as negative control (NC). Changing fresh culture solution every 3 days. […] Finally, the expression of related genes was detected by RT-PCR to determine the activation degree of primary stellate cells (HSC).

[2] = system: Latent TGF-β1 activation on the surface of stellate cells (HSC); experiment: TGF-β1 activity reporter co-culture of primary HSC with NIH-3T3 luciferase reporter cells; format: cell-based; settings: 50 g/ml in culture medium, 16 hours of culture, WT mouse HSC with NIH-3T3 reporter cells, vs unrelated IgG (NC)
Protocol: A: Primary stellate cells (HSC) from the liver of wild-type mice (WT) are isolated and co-cultured with NIH-3T3 cells containing the TGF-β1 activity reporter system. Recombinant mouse ECM1 protein ([…]), cRGD ([…]) or unrelated IgG protein ([…]) are added to the culture medium as negative control (NC). After 16 hours of the culture, the cells are lysed, and Luciferase activity in the lysate is detected.
The process of Latent TGF-β1 activation to TGF-β1 is a transient effect. Activated TGF-β1 will bind to TGF-β1 receptor on the adjacent cell surface, phosphorylating the downstream SMAD protein, and then activating the downstream gene expression. In order to better detect the process of Latent TGF-β1 activation to TGF-β1, we used a co-culture system to detect the […] activation process that occurs on the surface of HSC stellate cells. A luciferase reporter gene was stably transfected into NIH-3T3 cells. There are 4 repeated SMAD binding sites in the upstream of this reporter gene. […]
Firstly, primary stellate cells (HSC) of wild-type mouse (WT) liver were isolated and co-cultured with NIH-3T3 cells containing TGF-β1 activity reporter system. […] After 16 hours of culture, the cells were lysed, and Luciferase activity in the lysate was detected. […]

cRGD [reference compound]
activation of stellate cells (HSC), expression of related genes by RT-PCR [1]: significantly inhibit

B1: recombinant mouse ECM1 protein: Recombinant mouse extracellular matrix protein 1 added to the culture medium (protein, UniProt Q61508 20-559, looked up)
Extracellular matrix protein 1: ASEGAFKASDQREMTPERLFQHLHEVGYAAPPSPPQTRRLRVDHSVTSLHDPPLFEEQREVQPPSSPEDIPVYEEDWPTFLNPNVDKAGPAVPQEAIPLQKEQPPPQVHIEQKEIDPPAQPQEEIVQKEVKPHTLAGQLPPEPRTWNPARHCQQGRRGVWGHRLDGFPPGRPSPDNLKQICLPERQHVIYGPWNLPQTGYSHLSRQGETLNVLETGYSRCCRCRSDTNRLDCLKLVWEDAMTQFCEAEFSVKTRPHLCCRLRGEERFSCFQKEAPRPDYLLRPCPVHQNGMSSGPQLPFPPGLPTPDNVKNICLLRRFRAVPRNLPATDAIQRQLQALTRLETEFQRCCRQGHNHTCTWKAWEGTLDGYCERELAIKTHPHSCCHYPPSPARDECFAHLAPYPNYDRDILTLDLSRVTPNLMGQLCGSGRVLSKHKQIPGLIQNMTIRCCELPYPEQACCGEEEKLAFIENLCGPRRNSWKDPALCCDLSPEDKQINCFNTNYLRNVALVAGDTGNATGLGEQGPTRGTDANPAPGSKEE
activation of stellate cells (HSC), expression of related genes by RT-PCR [1]: significantly inhibit
activation of Latent TGF-β1 on the surface of stellate cells (HSC), Luciferase activity [2]: significantly inhibit
